Measurements published in article PMC2701625 (Biochemistry, 2009).

Molecular target: the molecule itself
Experiment: cross-linking

B1: GST-hHsp90-N520 (GST tagged human hsp90β truncation, residues 520-724) (domain or fragment)
chain: not shown
B1 was tested, and the “stoichiometry N” value was 4.
